The source of these data is patent US10357539B2, “Use of peptides that block metadherin-SND1 interaction as treatment for cancer” (THE TRUSTEES OF PRINCETON UNIVERSITY, priority 2014, dated 2019).

T1: MTDH (364-582) (Homo sapiens, UniProt Q86UE4)
T1 construct: made in house; host or cells: E. coli DH5α
T1 sequence (Q86UE4 364-582): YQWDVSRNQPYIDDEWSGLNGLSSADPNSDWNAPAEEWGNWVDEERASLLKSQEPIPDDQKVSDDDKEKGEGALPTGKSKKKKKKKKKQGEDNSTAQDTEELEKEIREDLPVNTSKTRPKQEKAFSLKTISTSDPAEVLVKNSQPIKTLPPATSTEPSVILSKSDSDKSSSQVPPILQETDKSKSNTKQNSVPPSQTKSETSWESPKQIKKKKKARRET

T2: SND1 (Homo sapiens, UniProt Q7KZF4)
T2 construct: 15 μg of His-SND1 (16-339) was added to the resin; made in house; host or cells: E. coli DH5α
T2 sequence (Q7KZF4 1-339): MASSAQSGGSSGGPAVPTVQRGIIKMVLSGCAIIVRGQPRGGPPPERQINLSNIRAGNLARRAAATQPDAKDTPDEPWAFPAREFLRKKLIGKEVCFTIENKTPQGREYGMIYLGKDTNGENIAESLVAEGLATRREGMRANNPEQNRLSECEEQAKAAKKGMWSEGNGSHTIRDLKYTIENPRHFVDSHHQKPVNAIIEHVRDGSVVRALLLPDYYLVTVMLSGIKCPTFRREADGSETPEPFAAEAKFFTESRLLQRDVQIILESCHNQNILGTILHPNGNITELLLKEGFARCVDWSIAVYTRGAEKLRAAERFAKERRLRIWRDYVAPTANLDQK

T3: Myc-MTDH (Homo sapiens, UniProt Q86UE4, A78S/T317A)
T3 construct: Full-length HA-tagged SND1 was co-expressed with full-length Myc-tagged wild-type (WT) or mutant MTDH in HEK293T cells; expressed in transfected cells; host or cells: HEK293T
T3 sequence (Q86UE4 1-582 A78S/T317A): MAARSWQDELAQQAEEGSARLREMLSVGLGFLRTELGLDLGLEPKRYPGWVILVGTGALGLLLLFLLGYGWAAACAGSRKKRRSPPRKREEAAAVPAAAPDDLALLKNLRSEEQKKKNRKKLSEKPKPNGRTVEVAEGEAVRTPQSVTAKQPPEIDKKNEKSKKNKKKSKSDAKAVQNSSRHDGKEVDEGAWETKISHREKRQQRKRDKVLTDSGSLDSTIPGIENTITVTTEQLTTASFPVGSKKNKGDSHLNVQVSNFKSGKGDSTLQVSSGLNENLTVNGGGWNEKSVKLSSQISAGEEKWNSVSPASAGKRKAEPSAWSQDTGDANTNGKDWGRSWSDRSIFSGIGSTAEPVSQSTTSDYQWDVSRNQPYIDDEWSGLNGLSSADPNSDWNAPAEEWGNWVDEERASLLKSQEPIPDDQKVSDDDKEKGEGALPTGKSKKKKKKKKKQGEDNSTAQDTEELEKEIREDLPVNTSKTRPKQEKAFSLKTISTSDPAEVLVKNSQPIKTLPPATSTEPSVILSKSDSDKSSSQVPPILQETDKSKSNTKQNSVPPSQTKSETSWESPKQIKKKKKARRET

B1: Δ39-43: SND1 with deletion in the SN1 Lβ2-β3 loop (Δ39-43) (protein)
chain: VPTVQRGIIKMVLSGCAIIVRGQPPERQINLSNIRAGNLARRAAATQPDAKDTPDEPWAFPAREFLRKKLIGKEVCFTIENKTPQGREYGMIYLGKDTNGENIAESLVAEGLATRREGMRANNPEQNRLSECEEQAKAAKKGMWSEGNGSHTIRDLKYTIENPRHFVDSHHQKPVNAIIEHVRDGSVVRALLLPDYYLVTVMLSGIKCPTFRREADGSETPEPFAAEAKFFTESRLLQRDVQIILESCHNQNILGTILHPNGNITELLLKEGFARCVDWSIAVYTRGAEKLRAAERFAKERRLRIWRDYVAPTANLDQK
modifications: left off: small tags and cut ends
B2: R316E: SND1 mutation located outside the interface, negative control (protein)
chain: VPTVQRGIIKMVLSGCAIIVRGQPRGGPPPERQINLSNIRAGNLARRAAATQPDAKDTPDEPWAFPAREFLRKKLIGKEVCFTIENKTPQGREYGMIYLGKDTNGENIAESLVAEGLATRREGMRANNPEQNRLSECEEQAKAAKKGMWSEGNGSHTIRDLKYTIENPRHFVDSHHQKPVNAIIEHVRDGSVVRALLLPDYYLVTVMLSGIKCPTFRREADGSETPEPFAAEAKFFTESRLLQRDVQIILESCHNQNILGTILHPNGNITELLLKEGFARCVDWSIAVYTRGAEKLRAAEEFAKERRLRIWRDYVAPTANLDQK
modifications: left off: small tags and cut ends
notes: SND1 mutation located outside the interface, negative control
B3: R324E: SND1 mutant R324E (protein, listed as Homo sapiens)
chain: MASSAQSGGSSGGPAVPTVQRGIIKMVLSGCAIIVRGQPRGGPPPERQINLSNIRAGNLARRAAATQPDAKDTPDEPWAFPAREFLRKKLIGKEVCFTIENKTPQGREYGMIYLGKDTNGENIAESLVAEGLATRREGMRANNPEQNRLSECEEQAKAAKKGMWSEGNGSHTIRDLKYTIENPRHFVDSHHQKPVNAIIEHVRDGSVVRALLLPDYYLVTVMLSGIKCPTFRREADGSETPEPFAAEAKFFTESRLLQRDVQIILESCHNQNILGTILHPNGNITELLLKEGFARCVDWSIAVYTRGAEKLRAAERFAKERRLEIWRDYVAPTANLDQKDKQFVAKVMQVLNADAIVVKLNSGDYKTIHLSSIRPPRLEGENTQDKNKKLRPLYDIPYMFEAREFLRKKLIGKKVNVTVDYIRPASPATETVPAFSERTCATVTIGGINIAEALVSKGLATVIRYRQDDDQRSSHYDELLAAEARAIKNGKGLHSKKEVPIHRVADISGDTQKAKQFLPFLQRAGRSEAVVEYVFSGSRLKLYLPKETCLITFLLAGIECPRGARNLPGLVQEGEPFSEEATLFTKELVLQREVEVEVESMDKAGNFIGWLHIDGANLSVLLVEHALSKVHFTAERSSYYKSLLSAEEAAKQKKEKVWAHYEEQPVEEVMPVLEEKERSASYKPVFVTEITDDLHFYVQDVETGTQLEKLMENMRNDIASHPPVEGSYAPRRGEFCIAKFVDGEWYRARVEKVESPAKIHVFYIDYGNREVLPSTRLGTLSPAFSTRVLPAQATEYAFAFIQVPQDDDARTDAVDSVVRDIQNTQCLLNVEHLSAGCPHVTLQFADSKGDVGLGLVKEGLVMVEVRKEKQFQKVITEYLNAQESAKSARLNLWRYGDFRADDADEFGYSR
B4: MTDH fragment 364-582: GST-tagged MTDH fragment, amino acids 364-582 of SEQ ID NO: 1 (protein, listed as Homo sapiens)
chain: T1 sequence (Q86UE4 364-582)
modifications: GST tag
B5: TPM3: MTDH triple-point mutant W404D, D406R and E407R (protein)
chain: T1 sequence (Q86UE4 364-582) with W41D, D43R, E44R
modifications: left off: a dimerising Fc or GST
notes: MTDH triple-point mutant W404D, D406R and E407R

Residue numbers refer to the chain shown, from its start. Numbers in names are those of the source. Where no end group is shown, it is not given here.

In one test the target is T1, MTDH (364-582). The experiment in a line: GST-mediated pull-down of SND1 constructs and mutants by GST-tagged MTDH (364-582). In kind it is binding. The settings on record: SND1 mutants in SND1 (16-339). From the text:
(§1) (FIG. 22A) In vitro pull-down of SND1 (16-339) by GST-tagged MTDH (364-582) harboring WT or mutant sequence. The proteins bound to GS4B were examined on SDS-PAGE and visualized by Coomassie blue staining. (FIG. 22B) In vitro pull-down of WT and mutant SND1 (16-339) by GST-tagged MTDH (364-582). The bound proteins were examined as in (FIG. 22A). For both (FIG. 22A) and (FIG. 22B), experiments were repeated three times; representative results are shown. The normalized percentage of binding was averaged from three experiments; mean±SEM was shown below the data. (FIG. 22C) HEK293T cells were transfected with human HA-SND1, WT Myc-MTDH or Myc-MTDH with indicated single point mutation. Lysates were immunoprecipitated with anti-Myc antibody and immunoblotted with the indicated antibodies. (FIG. 22D) HEK293T cells were transfected with human Myc-MTDH, WT HA-SND1 or mutant HA-SND1 with indicated single point mutations or deletions. Lysates were immunoprecipitated with anti-Myc and immunoblotted with the indicated antibodies.
(§2) GST-Mediated Pull-Down Assay: ˜20 μg of GST-MTDH (different truncation forms and site mutants) was bound to 10 μl of glutathione resin via GST tag. The resin was washed with 200 μl assay buffer (25 mM Tris, PH8.0, 150 mM NaCl, 3 mM DTT) three times to remove the excess unbound protein. 15 μg of His-SND1 (16-339) was added to the resin in a 100 μl volume suspended in the assay buffer with 2 mg/ml of BSA. The mixture was washed with 200 μl assay buffer twice before examined by SDS-PAGE, and visualized by Coomassie blue staining. The experiments were repeated 3 times and the ratio of SND1 associated with GST-MTDH was analyzed by ImageJ.
On to B1, for which the “MTDH-binding of SND1 domains and mutants, in vitro” value (shortened to “MTDH-binding”) is “almost completely abolished MTDH-binding”. Regarding B2, the “MTDH-binding” value was “barely affected MTDH-binding”. For B3, the “MTDH-binding” value is “significantly weakened the MTDH-binding”.

The target of a further test is T2, SND1. The experiment in a line: GST-mediated pull-down of SND1 by GST-tagged MTDH fragments and mutants. The settings on record: His6-SND1ΔC (1-339); Coomassie blue staining. In kind it is binding.
From the text: FIGS. 7A-E represents determination of key regions and residues mediating the MTDH-SND1 interaction. (FIG. 7A) Schematics of MTDH fragments and mutants with indicated SND1-binding capability. + indicates binding and − indicates no binding based on results shown below. Two putative nuclear localization signals are residues 432-451 for NLS2 and residues 561-580 for NLS3. In the enlarged view of the minimal binding region 386-407, 9 residues were targeted for mutagenesis in the current study. […] (FIG. 7B) Pulldown of His6-SND1AC by GST-tagged MTDH fragments with indicated boundaries. The bound proteins were examined by SDS-PAGE and visualized by Coomassie blue staining. (FIG. 7C) Pulldown of His6-SND1ΔC by GST-tagged WT or triple mutant MTDH fragments (364-582). For (FIG. 7B) and (FIG. 7C), 1/10 of the His6-SND1ΔC input was shown, and GST alone was used as a negative control. Representative results of 3 independent experiments are shown. (FIG. 7D, FIG. 7E) Lysates from HEK293T cells expressing the indicated ectopic human SND1, AGO2 or MTDH were immunoprecipitated with anti-Myc and immunoblotted with the indicated antibodies.
as §1, §2
For “22 amino-acid fragment (residues 386-407): GST-tagged minimal SND1-binding fragment of MTDH, residues 386-407 (SSADPNSDWNAPAEEWGNWVDE; also: GST-tagged fragment (tag left off))”, the “SND1-binding of MTDH fragments and triple mutants, in vitro” value is listed as “sufficient for SND1-binding”. On to B4, for which the “SND1-binding of MTDH fragments and triple mutants, in vitro” value is given as “bound stoichiometrically”. Same read-out and setting: as for B5, the entry is “bound SND1ΔC as effectively as the WT MTDH”.

A further test has as its target T3, Myc-MTDH. Kind of test: Co-immunoprecipitation of HA-SND1 (WT or mutant) with Myc-MTDH in HEK293T cells. In kind it is cell-based. The settings on record: HEK293T cell lysates.
From the text: as §1
Immunoprecipitation and western blot: For in vivo immunoprecipitation (IP) experiments, cultured cells were washed in cold PBS and lysed in lysis buffer (20 mM Tris pH 7.4, 0.15 M NaCl, 1 mM EDTA, 1 mM EGTA, 1% Tx-100, 0.0025 M Na2P2O7, 1 mM β-glycerolphosphate, 1 mM Na3VO4, and 1 mM NaF) with an EDTA-free protease inhibitor mixture (Roche Applied Science) and PMSF. Cell lysates were then incubated on ice for 10 min, centrifuged, and precleared by incubating with protein A/G beads (Santa Cruz Biotechnology) for 1 h at 4° C. For IP bead preparation, 30 μl of protein A/G beads were incubated with 5 μg of antibodies for 2 h at 4° C. IPs were carried out for overnight at 4° C., and beads were centrifuged, washed and subsequently boiled for 5 min in SDS protein loading buffer to elute bound protein. IP lysates were subjected to western blotting with indicated antibodies.
With B1, the “interaction of full-length HA-SND1 (WT or mutant) with Myc-MTDH” value is given as “nearly completely abolished MTDH-binding”. With B2, the “interaction of full-length HA-SND1 (WT or mutant) with Myc-MTDH” value is on record as “bound readily with Myc-MTDH”. Same read-out and setting: as for B3, the entry is “significantly reduced the binding”.
